Consider four molecules from patent publication US20160185865A1 (Dana-Farber, published 2016).

Residue numbers refer to the chain shown, from its start. In names and notes the source's numbering stands.

Experiment [1] has as its target T1, human CC chemokine receptor 4 (CCR4) (human, UniProt P51679 1-360).
T1 construct: whole, on cells; also called hCCR4
T1 sequence (looked up): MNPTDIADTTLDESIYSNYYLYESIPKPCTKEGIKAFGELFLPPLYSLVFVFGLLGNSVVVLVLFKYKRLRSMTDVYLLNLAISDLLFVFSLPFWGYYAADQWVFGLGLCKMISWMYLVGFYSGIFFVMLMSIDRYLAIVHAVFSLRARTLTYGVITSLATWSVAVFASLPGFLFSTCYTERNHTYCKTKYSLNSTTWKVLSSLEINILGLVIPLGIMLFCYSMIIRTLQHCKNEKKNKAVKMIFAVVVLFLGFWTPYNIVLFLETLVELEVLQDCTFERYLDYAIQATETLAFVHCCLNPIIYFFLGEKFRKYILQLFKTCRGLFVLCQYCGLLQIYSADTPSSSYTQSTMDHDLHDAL
The experiment is described as follows: binding curve of FIG. 20B; cells not given.

Experiment [2] addresses T1, human CC chemokine receptor 4 (CCR4). The experiment is described as follows: FACS titration (GMFI), 0 to 100 µg/mL in two-fold steps; cells not named in the legend.
Experiment [3] shares this target. Description: FACS, CCR4+ Mac-1 cells, dose dependent binding curve.

B1: mAb2-3 (Ab2-3IgG) (antibody, V domains shown)
VH: QVQLVQSGAEVKKPGASVKVSCKASGYTFASAWMHWMRQAPGQGLEWIGWINPGNVNTKYNEKFKGRATLTVDTSTNTAYMELSSLRSEDTAVYYCARSTYYRPLDYWGQGTLVTVSS
VL: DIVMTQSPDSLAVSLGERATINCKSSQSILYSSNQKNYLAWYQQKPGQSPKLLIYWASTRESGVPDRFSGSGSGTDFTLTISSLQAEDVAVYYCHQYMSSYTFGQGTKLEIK
notes: IgG form made by cloning VH and VL into the TCAE5.3 vector (human IgG1); also called APC-labeled mAb2-3
In turn, B1 yielded a half-maximal effective concentration (EC50) in experiment [1] of 0.35 nM.

B2: KW0761 (humanized KM2760 antibody) (antibody, V domains shown)
VH: EVQLVESGGDLVQPGRSLRLSCAASGFIFSNYGMSWVRQAPGKGLEWVATISSASTYSYYPDSVKGRFTISRDNAKNSLYLQMNSLRVEDTALYYCGRHSDGNFAFGYWGQGTLVTVSS
VL: DVLMTQSPLSLPVTPGEPASISCRSSRNIVHINGDTYLEWYLQKPGQSPQLLIYKVSNRFSGVPDRFSGSGSGTDFTLKISRVEAEDVGVYYCFQGSLLPWTFGQGTKVEIK
Turning to B2, in experiment [1], the response was half-maximal at 2.19 nM (EC50).

B3: h1567 VL-CDR3 mutant M1 (H105Q) (Fc fusion, not shown: a dimerising Fc or GST)
scFv: QVQLVQSGAEVKKPGASVKVSCKASGYTFASYYMHWMRQAPGQGLEWIGWINPGNVNTKYNEKFKGRATLTVDTSTNTAYMELSSLRSEDTAVYYCARSTYYRPLDYWGQGTLVTVSSGGGGSGGGGSGGGGSDIVMTQSPDSLAVSLGERATINCKSSQSILYSSNQKNYLAWYQQKPGQSPKLLIYWASTRESGVPDRFSGSGSGTDFTLTISSLQAEDVAVYYCQQYLSSYTFGQGTKLEIK
As for B3, the half-maximal effective concentration (EC50 (read off the curve)) in experiment [2] is ~0.5 µg/mL.

B4: Antibody 2-3 scFv-Fc (Fc fusion, not shown: a dimerising Fc or GST)
scFv: B3 scFv with Y32A, Y33W, Q228H, L231M
notes: also called Ab2-3 scFv-Fc; Mab 2-3
Regarding B4, in experiment [3], the midpoint of the response, the EC50, lay at 1.39 nM.
